In paper PMC6381110, “Allosteric enhancement of ORP1-mediated cholesterol transport by PI(4,5)P2/PI(3,4)P2” (Nature Communications, 2019):
Values joined by “and” are separate entries in the source; they are usually repeats but may differ in a detail not shown here. Identical values can stand only once.

Legend:
[1] = target: the molecule itself; test: SEC; Superdex-200 10/300, 10 mM Tris-HCl pH 8.0, 150 mM NaCl, 2 mM DTT; ORP1-ORD 5 uM alone or with cholesterol (free or in liposomes, 4:1); cholesterol shifts the protein towards monomer
[2] = target: the molecule itself; test: crystal structure; ORP1-ORD (524-950) with cholesterol, hanging drop 18 °C, 0.1 M NaAc pH 4.6, 2.0 M Na formate; oligomer by crystal symmetry
[3] = target: the molecule itself; test: crystal structure; ORP1-ORD (534-950) with cholesterol, hanging drop 18 °C, 0.1 M Na cacodylate pH 6.2, 1.2 M Na citrate; oligomer by crystal symmetry

B1: ORP1S (ORP1-ORD, residues 514-950) (natural protein, human, UniProt Q9BXW6 514-950, looked up)
chain: MSEEKDCGGGDALSNGIKKHRTSLPSPMFSRNDFSIWSILRKCIGMELSKITMPVIFNEPLSFLQRLTEYMEHTYLIHKASSLSDPVERMQCVAAFAVSAVASQWERTGKPFNPLLGETYELVRDDLGFRLISEQVSHHPPISAFHAEGLNNDFIFHGSIYPKLKFWGKSVEAEPKGTITLELLEHNEAYTWTNPTCCVHNIIVGKLWIEQYGNVEIINHKTGDKCVLNFKPCGLFGKELHKVEGYIQDKSKKKLCALYGKWTECLYSVDPATFDAYKKNDKKNTEEKKNSKQMSTSEELDEMPVPDSESVFIIPGSVLLWRIAPRPPNSAQMYNFTSFAMVLNEVDKDMESVIPKTDCRLRPDIRAMENGEIDQASEEKKRLEEKQRAARKNRSKSEEDWKTRWFHQGPNPYNGAQDWIYSGSYWDRNYFNLPDIY
notes: ORP1S, the short isoform encoded by human OSBPL1A, residues 514-950 on the numbering of the long isoform ORP1L (1-950); holds only the ORD; pET21b construct; In gel filtration it is a mixture of monomers, dimers and trimers; also called short isoform of OSBPL1A; source: E. coli Rosetta(DE3), purified (Ni-NTA, ion exchange, gel filtration)
For B1, the “stoichiometry N” value [1] was 2 and 3.

B2: ORP1-ORD (residues 524-950) (domain or fragment, human, UniProt Q9BXW6 524-950, looked up)
chain: DALSNGIKKHRTSLPSPMFSRNDFSIWSILRKCIGMELSKITMPVIFNEPLSFLQRLTEYMEHTYLIHKASSLSDPVERMQCVAAFAVSAVASQWERTGKPFNPLLGETYELVRDDLGFRLISEQVSHHPPISAFHAEGLNNDFIFHGSIYPKLKFWGKSVEAEPKGTITLELLEHNEAYTWTNPTCCVHNIIVGKLWIEQYGNVEIINHKTGDKCVLNFKPCGLFGKELHKVEGYIQDKSKKKLCALYGKWTECLYSVDPATFDAYKKNDKKNTEEKKNSKQMSTSEELDEMPVPDSESVFIIPGSVLLWRIAPRPPNSAQMYNFTSFAMVLNEVDKDMESVIPKTDCRLRPDIRAMENGEIDQASEEKKRLEEKQRAARKNRSKSEEDWKTRWFHQGPNPYNGAQDWIYSGSYWDRNYFNLPDIY
notes: OSBP-related domain (ORD) of human ORP1, residues 524-950 on ORP1L (1-950) numbering; Crystallised with cholesterol and with PI(4,5)P2; also called ORP1-ORD (524-950); source: E. coli Rosetta(DE3), purified (Ni-NTA, ion exchange, gel filtration)
With B2 the “stoichiometry N” value [2] was 3.

B3: ORP1-ORD (residues 534-950) (domain or fragment, human, UniProt Q9BXW6 534-950, looked up)
chain: RTSLPSPMFSRNDFSIWSILRKCIGMELSKITMPVIFNEPLSFLQRLTEYMEHTYLIHKASSLSDPVERMQCVAAFAVSAVASQWERTGKPFNPLLGETYELVRDDLGFRLISEQVSHHPPISAFHAEGLNNDFIFHGSIYPKLKFWGKSVEAEPKGTITLELLEHNEAYTWTNPTCCVHNIIVGKLWIEQYGNVEIINHKTGDKCVLNFKPCGLFGKELHKVEGYIQDKSKKKLCALYGKWTECLYSVDPATFDAYKKNDKKNTEEKKNSKQMSTSEELDEMPVPDSESVFIIPGSVLLWRIAPRPPNSAQMYNFTSFAMVLNEVDKDMESVIPKTDCRLRPDIRAMENGEIDQASEEKKRLEEKQRAARKNRSKSEEDWKTRWFHQGPNPYNGAQDWIYSGSYWDRNYFNLPDIY
notes: OSBP-related domain (ORD) of human ORP1, residues 534-950 on ORP1L (1-950) numbering; Crystallised with cholesterol from Na cacodylate; also called ORP1-ORD (534-950); ORP1S lacking the N-terminal 20 amino acids; source: E. coli Rosetta(DE3), purified (Ni-NTA, ion exchange, gel filtration)
In the case of B3, the “stoichiometry N” value [3] is reported as 2.
